Data reported in US5981720A, “Human salivary proteins and fragments thereof having alpha-glucosidase inhibitory activity” (priority 1997, dated 1999).
Residues, ends and D or L forms follow the SMILES beside them. No end group written: not given here. *: point of attachment. NH(β-GlcNAc) = CC(=O)N[C@@H]1[C@@H](O)[C@H](O)[C@@H](CO)O[C@H]1N*; acetylglucosamine = N-acetylglucosamine

Target: yeast alpha-glucosidase (Saccharomyces cerevisiae, UniProt P53341)
Assay type: biochemical
Description: The enzyme of alpha-glucosidase activity is according to the procedure as described by Sigma Chemical Company, St. Louis, Mo. Routinely, the enzyme reaction mixture contains 10 mM maltose and 50 ul of purified alpha-glucosidase or 0.02 units of yeast alpha-glucosidase in a final volume of 60 ul of 25 mM sodium acetate buffer, pH 5.6. The reaction mixture is incubated at 37° C. for 60 minutes, and the production of glucose is determined by the glucose oxidase reagent (Worthington Statzyme Glucose 500) in accordance with recommendation of Worthington Biochemical Corporation.

Chain of yeast alpha-glucosidase (P53341 whole entry): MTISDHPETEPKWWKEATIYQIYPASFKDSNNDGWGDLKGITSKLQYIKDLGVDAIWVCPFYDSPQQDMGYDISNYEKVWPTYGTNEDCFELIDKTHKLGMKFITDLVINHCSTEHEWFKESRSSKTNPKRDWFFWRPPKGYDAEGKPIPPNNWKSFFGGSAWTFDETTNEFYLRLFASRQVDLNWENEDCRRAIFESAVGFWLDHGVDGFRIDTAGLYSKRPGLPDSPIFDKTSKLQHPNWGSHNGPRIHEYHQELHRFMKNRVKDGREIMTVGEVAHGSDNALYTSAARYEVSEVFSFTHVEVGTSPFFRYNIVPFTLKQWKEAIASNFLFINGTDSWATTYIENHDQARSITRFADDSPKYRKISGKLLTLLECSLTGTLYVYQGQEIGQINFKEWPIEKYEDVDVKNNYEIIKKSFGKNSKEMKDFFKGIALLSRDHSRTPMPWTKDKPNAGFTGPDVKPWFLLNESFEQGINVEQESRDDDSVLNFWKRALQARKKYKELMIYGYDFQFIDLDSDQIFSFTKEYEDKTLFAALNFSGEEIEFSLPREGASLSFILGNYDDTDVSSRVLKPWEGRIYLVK

glycopeptide: bioactive fragment from Lys-C digestion of CON-1: glycine-glycine-asparagine-lysine, asparagine glycosylated by acetylglucosamine (GGN(acetylglucosamine)K)
inhibition of alpha-glucosidase lost after N-acetylglucosaminidase treatment (compared to the nontreated glycopeptide): about 20% | change of inhibitory activity after removal of acetylglucosamine (in words) (incubation with N-acetylglucosaminidase): marked reduction in inhibitory activity

acetoacetate glycopeptide complex: reaction product of the putative glycopeptide with acetoacetate reagent (GGN(acetylglucosamine)K; also: reacted with acetoacetate reagent (glycine residue))
inhibitory effect on alpha-glucosidase activity (in words) (0.02 units of yeast alpha-glucosidase): loss of inhibitory effect of the glycopeptide itself but is able to stimulate the alpha-glucosidase activity

glycine-glycine-asparagine-pyridoxyl-lysine acetylglucosamine
increase in inhibitory effect on alpha-glucosidase (glycopeptide preincubated with pyridoxal 5-phosphate versus unmodified glycopeptide): 50%

CC(=O)N[C@@H]1[C@@H](O)[C@H](O)[C@@H](CO)O[C@H]1NC(=O)C[C@H](NC(=O)CNC(=O)CN)C(=O)N[C@@H](CCCCN)C(=O)O [synthetic glycopeptide, Gylcyl-glycl-(NB-2-(acetylamino)-deoxy-2-B-pyranosyl)-asparaginyl-lysine] (H-GGD(NH(β-GlcNAc))K-OH)
inhibitory effect on the alpha-glucosidase activity (10 ug of peptide, 50 mM acetate buffer pH 5.6, compared to control): about 90%
